Measured values as given in paper PMC5384453, “A multi-functional PEGylated gold(III) compound: potent anti-cancer properties and self-assembly into nanostructures for drug co-delivery” (Chemical Science, 2016).

Columns and labels:
L02 = assay: In vitro cytotoxicity, MTT assay; assay type: cell-based, human; conditions: 72 h
Protocol: (§1) page 7: The gold content of the nanocomposites was determined by dissolving the nanocomposites in conc. HNO3 / conc. HCl solution mixture (9:1, v/v; 30 µL), followed by ICP-MS analysis. […] The nanocomposite (10 µL) was dissolved in acetonitrile (90 µL), and subjected to gentle shaking overnight. The solution mixture was then dried under vacuum, and re- dispersed in 0.1 vol% formic acid in water/acetonitrile (7/3, v/v; 1 mL) solution mixture. […] The mobile phase was 0.1 vol% formic acid in water/acetonitrile (7:3, v/v) solution mixture. […] The cells were then treated with a serial concentration of gold(III) complexes and incubated at 37 °C under a 5% CO2 atmosphere for 72 h. […] After incubation for 72 h, MTT in PBS solution (5 mg/mL, 10 μL) was added to each well. The plates were incubated at 37 °C under a 5% CO2 atmosphere for another 4 h, and the cells were lysed by the addition of SDS solution (10%, w/w) with 0.01 M HCl (100 μL). After incubation in dark at 37 °C overnight, the cell viability after treatment was determined by a microtitre plate reader monitoring at the absorbance at 590 nm, P.7 page 8: which reflected the amount of blue formazan formed. IC50 values were then determined by CompuSyn S6 from three independent measurements. Study on the release of hydrolyzed product from 1 and 2 in aqueous buffer solutions by ICP-MS. […] At a predetermined time, an aliquot of solution was removed and dissolved in HNO3/HCl solution mixture (9:1, v/v; volume of aliquot: volume of acid mixture = 1:3). The solution mixture was heated at 65 °C with shaking overnight, and the gold content was determined by ICP-MS from three independent aliquots. […] 37 °C for 24 h. […] Analysis of cell lysate of HCT116 cells treated with complexes 1 and 3 by UPLC- QTOF-MS. […] All the cells were harvested, washed with PBS solution for three times and dispersed in ice-cold water. The cell suspension was then added to ice-cold acetonitrile (1:3, v/v), vortexed for 5 min, and centrifuged at 10,000 rpm at 4 °C. The supernatant was collected, dried under vacuum and the solid was re-dissolved in acetonitrile (HPLC grade) for UPLC- QTOF-MS experiments. The mobile phase was a mixture of 0.1% formic acid in water (phase A) and 0.1% formic acid in acetonitrile (phase B). […] P.46

CHEM-5 = assay: In vitro cytotoxicity, MTT assay; assay type: cell-based, human; conditions: CHEM-5, MTT assay, 72 h
Protocol: as §1

[1] = Release of hydrolyzed gold(III) porphyrin moiety in aqueous buffer solutions (dialysis, ICP-MS); assay type: physicochemical; conditions: for hydrolyzed product found: sodium acetate buffer pH 4, 37 °C
Protocol: The rate of the release of the gold(III) porphyrin moiety from the conjugates in aqueous buffer solutions at different pH values was determined according to the reported methodology.[24],[26],[27] Nanostructures of 1 and 2 were dissolved in PBS or sodium acetate buffer (pH 4.0) and then dialyzed against a large volume of PBS or sodium acetate buffer solution in the dark at 37 °C using a 1000 Da cut-off dialysis membrane (details are included in the ESI ^†). The quantity of the hydrolyzed gold(III) porphyrin moiety at different time points was determined by inductively coupled plasma mass spectrometry (ICP-MS; Fig. 2a). In PBS, 31% and 60% of 1 were hydrolyzed at 6 and 24 h, respectively, while only 2% and 3% of hydrolyzed product of 2 were found at 5 and 24 h, and more than 89% of 2 remained unhydrolyzed at 96 h. […] Faster release was also found upon incubation of 2 in pH 4 buffer solution compared to that in PBS, but the amount was still much smaller than that found in the study of 1. As the only difference between 1 and 2 is the chemical structure of the linkage for PEG conjugation, the faster release of the gold(III) porphyrin moiety from 1 in PBS than that from 2 should be attributed to the higher tendency of the ester bond in 1 to undergo hydrolytic cleavage than the amide bond in 2.[52] […]
Study on the release of hydrolyzed product from 1 and 2 in aqueous buffer solutions by ICP-MS. The nanostructures of gold(III) complex was dissolved in PBS solution (pH 7.4; 1 mg/mL) or sodium acetate buffer solution (pH 4.0; 1 mg/mL) and was dialyzed against 1 L of the buffer solution at 37 °C using semipermeable minidialysis tubes (molecular weight cut-off = 1,000 Da; GE Healthcare). At a predetermined time, an aliquot of solution was removed and dissolved in HNO3/HCl solution mixture (9:1, v/v; volume of aliquot: volume of acid mixture = 1:3). The solution mixture was heated at 65 °C with shaking overnight, and the gold content was determined by ICP-MS from three independent aliquots. […]

Compound	IC50 (L02) [µM]	IC50 (CHEM-5) [µM]	hydrolyzed (release of gold(III) porphyrin moiety) ([1]; PBS, 37 °C, 6 h) [%]	hydrolyzed (release of gold(III) porphyrin moiety) ([1]; PBS, 37 °C, 24 h) [%]	hydrolyzed product found ([1]; 6 h) [%]	hydrolyzed product found ([1]; 24 h) [%]	hydrolyzed (release of gold(III) porphyrin moiety) ([1]; PBS, 37 °C, 5 h) [%]	remained unhydrolyzed ([1]; PBS, 37 °C, 96 h)
COC(=O)c1ccc(C2=C3C=CC(=N3)C(c3ccccc3)=c3ccc4[n]3[Au+][n]3c(ccc32)C(c2ccccc2)=C2C=CC(=N2)C=4c2ccccc2)cc1.[Cl-] [Compound 3, [Au(TPP–COOCH3)]^+]	0.2 ± 0.05	3.5 ± 0.03						
[Au(TPP–COO–PEG5000–OCH3)]Cl [Compound 1]	3.8 ± 0.1	11.3 ± 0.05	31	60	60	96		
[Au(TPP–CONH–PEG5000–OCH3)]Cl [Compound 2]				3			2	more than 89%
